# From patent US20260373285 (published 2026)
# Biological target: hPD-L1(ECD)-His (human, UniProt Q9NZQ7)
# Experiment: SPR supernatant
# Sequence of hPD-L1(ECD)-His (Q9NZQ7 19-238): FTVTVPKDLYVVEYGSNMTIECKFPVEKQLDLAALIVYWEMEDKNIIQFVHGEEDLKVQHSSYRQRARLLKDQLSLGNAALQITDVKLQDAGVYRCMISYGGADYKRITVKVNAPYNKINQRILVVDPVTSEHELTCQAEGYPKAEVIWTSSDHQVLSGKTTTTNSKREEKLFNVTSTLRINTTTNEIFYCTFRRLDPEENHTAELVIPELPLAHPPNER
row,Binder,Kd [nM]
1,"PD-L1-1.168.15-z1-uIgG1K (antibody, V domains shown) VH: EVQLVQSGAEVKKPGATVKISCKVSGFNIEDTYIYWVQQAPGKGLEWMGWIDPANYNTKYDPRFQDRVTITADTSTDTAYMELSSLRSEDTAVYYCARGLRLLMDYWGQGTTVTVSS VL: DIQLTQSPSFLSASVGDRVTITCKASQNVHTSLAWYQQKPGKSPKLLIYLASNRHTGVPSRFSGSGSGTEFTLTISSLQPEDFATYYCLQHWNYPLTFGQGTKLEIKR",1.09
2,"PD-L1-1.168.15-z17-uIgG1K (antibody, V domains shown) VH: EVQLVQSGAEVKKPGATVKISCKVSGFNIEDTYIYWVQQAPGKGLEWMGWIDPANYNTKYDPRFQDRVTVTVDTSTNTAYMELSSLRSEDTAVYYCARGLRLLMDYWGQGTTVTVSS VL: DIQMTQSPSFLSASVGDRVTITCKASQNVHTSLAWYQQKPGKSPKALIYLASNRHTGVPSRFSGSGSGTEFTLTISSLQPEDFATYFCLQHWNYPLTFGQGTKLEIKR",1.67
3,PD-L1-1.168.15-z14-uIgG1K (antibody) chain 1: not shown chain 2: DIQMTQSPSFLSASVGDRVTITCKASQNVHTSLAWYQQKPGKSPKALIYLASNRHTGVPSRFSGSGSGTEFTLTISSLQPEDFATYFCLQHWNYPLTFGQGTKLEIKRTVAAPSVFIFPPSDEQLKSGTASVVCLLNNFYPREAKVQWKVDNALQSGNSQESVTEQDSKDSTYSLSSTLTLSKADYEKHKVYACEVTHQGLSSPVTKSFNRGEC,1.07
4,PD-L1-1.168.15-z13-uIgG1K (antibody) chain 1: not shown chain 2: DIQLTQSPSFLSASVGDRVTITCKASQNVHTSLAWYQQKPGKSPKALIYLASNRHTGVPSRFSGSGSGTEFTLTISSLQPEDFATYFCLQHWNYPLTFGQGTKLEIKRTVAAPSVFIFPPSDEQLKSGTASVVCLLNNFYPREAKVQWKVDNALQSGNSQESVTEQDSKDSTYSLSSTLTLSKADYEKHKVYACEVTHQGLSSPVTKSFNRGEC,1.04
5,PD-L1-1.168.15-z8-uIgG1K (antibody) chain 1: not shown chain 2: DIQLTQSPSFLSASVGDRVTITCKASQNVHTSLAWYQQKPGKSPKALIYLASNRHTGVPSRFSGSGSGTEFTLTISSLQPEDFATYYCLQHWNYPLTFGQGTKLEIKRTVAAPSVFIFPPSDEQLKSGTASVVCLLNNFYPREAKVQWKVDNALQSGNSQESVTEQDSKDSTYSLSSTLTLSKADYEKHKVYACEVTHQGLSSPVTKSFNRGEC,1.13

# Second part, the binder after the results:
row,Kd [nM],Binder
1,0.844,"PD-L1-1.168.15-z201-uIgG1K (antibody, V domains shown) VH: EVQLVQSGAEVKKPGATVKLSCKVSGFNIEDTYIYWVQQAPGKGLEWIGWIDPANYNTKYDPRFQDRVTVTVDTSTNTAYMELSSLRSEDTAVYYCARGLRLLMDYWGQGTTVTVSS VL: DIVMTQSQKFMSSSVGDRVSITCKASQNVHTSLAWYQQRPGQSPKALIYLASNRHTGVPDRFTGSGSGTDFTLTISNVQSEDLADYFCLQHWNYPLTFGAGTKLELRR"
2,0.501,"PD-L1-1.168.15-z202-uIgG1K (antibody, V domains shown) VH: EVQLQQSGAELVKPGASVKLSCTVSGFNIEDTYIYWVKQRPEQGLEWIGWIDPANYNTKYDPRFQDKATVTVDTSSNTAYMHLSSLTSEDTAVYYCARGLRLLMDYWGQGTSVTVSS VL: DIQMTQSPSFLSASVGDRVTITCKASQNVHTSLAWYQQKPGKSPKALIYLASNRHTGVPSRFSGSGSGTEFTLTISSLQPEDFATYFCLQHWNYPLTFGQGTKLEIKR"
3,0.998,"PD-L1-1.168.15-z6-uIgG1K (antibody, V domains shown) VH: EVQLVQSGAEVKKPGATVKISCKVSGFNIEDTYIYWVQQAPGKGLEWMGWIDPANYNTKYDPRFQDRVTITVDTSTDTAYMELSSLRSEDTAVYYCARGLRLLMDYWGQGTTVTVSS VL: DIQLTQSPSFLSASVGDRVTITCKASQNVHTSLAWYQQKPGKAPKALIYLASNRHTGVPSRFSGSGSGTEFTLTISSLQPEDFATYYCLQHWNYPLTFGQGTKLEIKR"
4,1.01,PD-L1-1.168.15-z7-uIgG1K (antibody) chain 1: not shown chain 2: DIQLTQSPSFLSASVGDRVTITCKASQNVHTSLAWYQQKPGKSPKALIYLASNRHTGVPSRFSGSGSGTEFTLTISSLQPEDFATYYCLQHWNYPLTFGQGTKLEIKRTVAAPSVFIFPPSDEQLKSGTASVVCLLNNFYPREAKVQWKVDNALQSGNSQESVTEQDSKDSTYSLSSTLTLSKADYEKHKVYACEVTHQGLSSPVTKSFNRGEC
